Tests used:
[1] = molecular target: GST-tagged TRIM21-RING (residue 1-85) (UniProt P19474); assay: SPR; BIAcore T200; GST-T21-R captured on an anti-GST antibody-coated CM5 chip (GST on the reference channel); Ube2N or Ube2N~Ub injected in 1:2 dilution series from 80 µM; 30 µl/min; 20 mM Tris-HCl pH 8.0, 150 mM NaCl, 1 mM DTT; 25 °C; KD from equilibrium responses, single-site model
TRIM21-RING^M10E = TRIM21-RING^M10E (UniProt P19474); assay: NMR titration; Ube2N^C87K/K92A titrated into 100 µM 15N-labelled T21-R^M10E constructs; KD from fits of chemical shift perturbations (five peaks); 25 °C; 50 mM deuterated Tris pH 7.0, 150 mM NaCl, 1 mM deuterated DTT
TRIM21-RING^M10E/E12R = TRIM21-RING^M10E/E12R (UniProt P19474); assay: as above

| Kd [1] [µM] | koff [1] [s⁻¹] | Kd (TRIM21-RING^M10E) [µM] | Kd (TRIM21-RING^M10E/E12R) [µM] | Substance |
| --- | --- | --- | --- | --- |
| 43 | > 1 |  |  | Ube2N (as used in the SPR experiment) (enzyme) |
|  |  | 15 | 57 | Ube2N^C87K/K92A (enzyme) |
| 5 | 0.15 |  |  | isopeptide-linked Ube2N^C87K/K92A~ubiquitin conjugate (from UniProt P0CG48 1-76) (complex) |

From article PMC6776665
